Experimental data from patent US20220096594A1 (University of Texas, published 2022).
Bridge positions count the residues as written; N and C are the ends. Square brackets hold non-standard residues; d marks the D form. Primed or numbered codes have the meaning given here. Ends that are not written are not given here. * marks the point of attachment. DSG″ = disuccinimidyl glutarate, a bis-NHS cross-linker that leaves a glutaryl bridge between two amines; DSG(3) = disuccinimidyl glutarate, bis-NHS cross-linker leaving a glutaryl bridge between two amines; puromycin = COc1ccc(C[C@H](N*)C(=O)N[C@H]2[C@@H](O)[C@H](n3cnc4c(N(C)C)ncnc43)O[C@@H]2CO)cc1; DSG = disuccinimidyl glutarate; NMeA = CN[C@@H](C)C(=O)O; mRNA = not defined here

What was measured:
[1] = biological target: T1, His6-LC3A, biotinylated and immobilized on streptavidin agarose (human, UniProt Q9H492 1-121, chemically biotinylated (sites not given)); experiment: radiolabeled peptide fusion incubated with immobilized LC3A
T1 construct: the species is not restated for this construct; The tag is placed at the N-terminus only because of the name His6-LC3A; also called immobilized LC3A; immobilized LC3; not shown: His6 tag

[2] = biological target: LC3 (as used in surface plasmon resonance) (human, UniProt Q9H492 1-120); experiment: surface plasmon resonance

B1: Clone 25C radiolabeled mRNA-peptide fusion (peptide)
peptide: MFSHRVTL[NMeA]K
modifications: bridge N-10; not fully specified (C-terminus, bridges); also: radiolabeled
For B1, the “% of radiolabeled peptide-fusions bound to immobilized LC3” value (from here on “% of radiolabeled peptide-fusions bound”) [1] was 13%.

B2: Clone 4B radiolabeled mRNA-peptide fusion (peptide)
peptide: MFPHRVTA[NMeA]K
modifications: bridge N-10; not fully specified (C-terminus, bridges); also: radiolabeled
notes: Tested as an individual in vitro translated peptide fusion from the SUPR mRNA display selection; also called Peptide 4B
In the case of B2, the “% of radiolabeled peptide-fusions bound” value [1] is reported as 86%.

B3: SUPR 4B1W (peptide)
peptide: MWPHRVTA[NMeA]K
modifications: bridge N-10 via DSG
notes: Phenylalanine-to-tryptophan variant of SUPR 4B at position 2
For B3, the Kd [2] was 30 µM and the “fold improvement of the apparent dissociation constant relative to SUPR4B” value [2] was roughly 10 fold.

B4: Clone 25A radiolabeled mRNA-peptide fusion (peptide)
peptide: MYARSLRD[NMeA]K
modifications: bridge N-10; not fully specified (C-terminus, bridges); also: radiolabeled
With B4 the “% of radiolabeled peptide-fusions bound” value [1] was 6%.

B5: Clone 25F radiolabeled mRNA-peptide fusion (peptide)
peptide: MNARSLRD[NMeA]K
modifications: bridge N-10; not fully specified (C-terminus, bridges); also: radiolabeled
For B5, the “% of radiolabeled peptide-fusions bound” value [1] was 5%.

B6: Clone 4E radiolabeled mRNA-peptide fusion (peptide)
peptide: MLSDIPVNDK-{puromycin-mRNA}
modifications: bridge N-10 via DSG(3); reading uncertain; also: radiolabeled
In the case of B6, the “% of radiolabeled peptide-fusions bound” value [1] is reported as 7%.

B7: SUPR 4B (synthesized cyclic peptide) (peptide)
peptide: MFPHRVTA[NMeA]K
modifications: bridge N-10 via DSG″
notes: It is kept apart from the mRNA-peptide fusion m1; also called Clone 4B
B7 gave a Kd [2] of 291 µM.
